Source: patent US9228015B2, “Nogo receptor antagonists and methods of increasing neurite outgrowth” (Biogen Idec MA Inc., priority 2006, dated 2016)

Legend:
[1] = target: T1, fragments of rat NgR1 (sNgR310) (Rattus norvegicus, UniProt Q99M75, A303T/C287S/C43R/E284G/T53A); assay: Western blot of acid/CNBr fragments of sNgR310 probed with 7E11; format: binding
T1 construct: intact rat NgR1 (aa 27-aa 310); made in house
T1 sequence (Q99M75 27-310 C43R/T53A/E284G/C287S/A303T): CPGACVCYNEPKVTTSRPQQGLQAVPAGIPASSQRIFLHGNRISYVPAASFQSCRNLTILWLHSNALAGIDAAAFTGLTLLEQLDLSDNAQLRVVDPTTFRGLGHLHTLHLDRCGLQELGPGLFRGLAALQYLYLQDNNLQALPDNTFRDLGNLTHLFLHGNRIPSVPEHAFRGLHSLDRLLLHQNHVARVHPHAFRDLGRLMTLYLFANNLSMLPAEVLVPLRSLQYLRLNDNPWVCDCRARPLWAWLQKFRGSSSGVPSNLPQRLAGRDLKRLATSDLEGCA
Method: (§1) A recombinant fragment of the rat NgR1 that contains all 8 LRR domains and the N- and C-terminal caps (sNgR310) was treated with either acid or cyanogen bromide (CNBr) and separated the fragments by gel electrophoresis. Untreated sNgR310 migrates with an apparent molecular weight of 42 kDa. Acid treatment of sNgR310 produced two major cleavage products of 15 kDa (aa 27-aa 122) and 30 kDa (aa 123-aa 310). CNBr treatment generated three fragments, a 33/35 kDa doublet (aa 27-aa 229), which may represent fragments with heterogeneous glycosylation, a 10 kDa product (aa 241-aa 310), and an 11-amino-acid fragment (as 230-aa 240), which is not retained on the gel. […] Both the 15 kDa acid fragment and the 35 kDa CNBr fragment contained the sequence […] (SEQ ID NO: 1), consistent with 7E11 binding to a single epitope on NgR1.

[2] = target: T2, fragments of rat NgR1 (sNgR310) (Rattus norvegicus, UniProt Q99M75, C43R/T53A); assay: as above; format: binding
T2 construct: intact rat NgR1 (aa 27-aa 310); made in house
T2 sequence (Q99M75 27-122 C43R/T53A): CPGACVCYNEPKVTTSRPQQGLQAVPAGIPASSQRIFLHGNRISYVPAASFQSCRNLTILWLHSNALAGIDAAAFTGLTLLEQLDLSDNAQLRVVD
Method: as §1

[3] = target: T3, fragments of rat NgR1 (sNgR310) (Rattus norvegicus, UniProt Q99M75, A303T/C287S/E284G); assay: as above; format: binding
T3 construct: intact rat NgR1 (aa 27-aa 310); made in house
T3 sequence (Q99M75 241-310 E284G/C287S/A303T): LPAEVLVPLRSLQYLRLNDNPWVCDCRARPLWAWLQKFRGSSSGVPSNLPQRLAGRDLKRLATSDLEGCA
Method: as §1

[4] = target: T4, fragments of rat NgR1 (sNgR310) (Rattus norvegicus, UniProt Q99M75, A303T/C287S/E284G); assay: as above; format: binding; remark: listed apart in the source
T4 construct: intact rat NgR1 (aa 27-aa 310); made in house
T4 sequence (Q99M75 123-310 E284G/C287S/A303T): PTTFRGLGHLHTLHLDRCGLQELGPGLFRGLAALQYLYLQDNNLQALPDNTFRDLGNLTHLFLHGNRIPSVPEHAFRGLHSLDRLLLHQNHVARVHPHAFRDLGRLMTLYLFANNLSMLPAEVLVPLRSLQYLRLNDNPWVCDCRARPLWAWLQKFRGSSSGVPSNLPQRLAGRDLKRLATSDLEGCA
Method: as §1

[5] = target: T5, fragments of rat NgR1 (sNgR310) (Rattus norvegicus, UniProt Q99M75, C43R/T53A); assay: as above; format: binding; remark: listed apart in the source
T5 construct: intact rat NgR1 (aa 27-aa 310); made in house
T5 sequence (Q99M75 27-229 C43R/T53A): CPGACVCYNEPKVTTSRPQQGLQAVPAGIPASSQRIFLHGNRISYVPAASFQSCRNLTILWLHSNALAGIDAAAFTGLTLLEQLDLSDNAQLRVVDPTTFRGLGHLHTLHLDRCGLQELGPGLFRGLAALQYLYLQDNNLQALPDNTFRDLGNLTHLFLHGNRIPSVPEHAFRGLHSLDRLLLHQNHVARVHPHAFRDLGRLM
Method: as §1

human NgR2 = target: T6, human NgR2 (Homo sapiens, UniProt Q86UN3); assay: Antibody binding specificity: human Nogo receptor-2
T6 sequence (Q86UN3 47-390): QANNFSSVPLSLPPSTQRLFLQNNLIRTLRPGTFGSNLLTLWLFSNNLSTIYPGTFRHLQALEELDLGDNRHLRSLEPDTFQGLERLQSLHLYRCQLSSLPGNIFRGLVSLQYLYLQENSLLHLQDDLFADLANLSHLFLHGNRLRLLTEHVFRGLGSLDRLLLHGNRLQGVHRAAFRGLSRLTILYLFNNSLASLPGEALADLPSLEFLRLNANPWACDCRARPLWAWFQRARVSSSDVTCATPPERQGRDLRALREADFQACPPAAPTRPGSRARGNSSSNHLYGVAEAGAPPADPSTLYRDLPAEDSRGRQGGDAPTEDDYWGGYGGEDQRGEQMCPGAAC

- binding to intact rat NgR1 (aa 27-aa 310) [1]: bound
- binding to the 15 kDa acid fragment (aa 27-aa 122) [2]: bound
- binding to the 10 kDa CNBr fragment (aa 241-aa 310) [3]: did not bind
- binding to the 30 kDa acid fragment (aa 123-aa 310) [4]: did not bind
- binding to the 35 kDa CNBr fragment (aa 27-aa 229) [5]: bound
- binding to human Nogo receptor-2 (human NgR2): not
B1: 7E11: murine monoclonal anti-Nogo receptor-1 antibody, immunogen rat Nogo receptor-1 residues 110-125, IgG1 kappa, ATCC PTA-4587 (antibody, V domains shown)
VH: VQLQESGAELVMPGASVKMSCKASGYTFTDYWMHWVKQRPGQGLEWIGAIDPSDSYSSYNQNFKGKATLTVDGSSSTAYMQLSSLTSEDSAVYYCARRITEAGAWFAYWGQGTTVT
VL: MKLPVRLLVLMFWIPASSSDVVMTQTPLSLPVSLGDQASISCRSSQSLVHSNGNTYLHWYLQKPGQSPKLLIYKVSNRFSGVPDRFSGSGSGTDFTLKISRVDAEDLGVYFCSQSTHVPFTFGGGTKLEIKRADAAPTVSISHH
modifications: 7E11 heavy chain; 7E11 light chain
notes: murine monoclonal anti-Nogo receptor-1 antibody, immunogen rat Nogo receptor-1 residues 110-125, IgG1 kappa, ATCC PTA-4587
